Patent publication US12202905B2, “Methods and compositions relating to adenosine receptors” (Twist Bioscience Corporation, priority 2021, dated 2025)

T1: A2b (Homo sapiens, UniProt P29275)
T1 construct: expressed in transfected cells; host or cells: CHO-K1
T1 sequence (P29275 1-332): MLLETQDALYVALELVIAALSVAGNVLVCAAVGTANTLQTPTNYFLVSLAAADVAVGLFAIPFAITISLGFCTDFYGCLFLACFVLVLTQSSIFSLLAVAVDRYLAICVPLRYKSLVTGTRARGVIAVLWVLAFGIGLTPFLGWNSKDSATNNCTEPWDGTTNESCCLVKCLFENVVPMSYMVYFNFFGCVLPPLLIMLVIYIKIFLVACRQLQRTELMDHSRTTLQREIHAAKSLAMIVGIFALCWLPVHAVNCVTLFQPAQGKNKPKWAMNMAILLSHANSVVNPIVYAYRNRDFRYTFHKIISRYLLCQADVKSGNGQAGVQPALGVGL

B1: A2A-17: A2AR variant; VH CDR1-3 SEQ ID NO 22/111/200 (antibody, V domains shown)
VH: EVQLVESGGGLVKPGGSLRLSCAASGFNIGNTYMHWFRQAPGKGLEWVGVINPNYGTTRYNDSVKGRFTISRDNSKNTLYLQMNSLRAEDTAVYYCARDYGSSSFDYWGQGTLVTVSS
VL: DIQMTQSPSSLSASVGDRVTITCKASQSVRNDVVWYQQKPGKAPKLLIYRGNTLRPGVPSRFSGSGSGTDFTLTISSLQPEDFATYYCQQYYGIPLTFGQGTKLEIK
B2: A2A-19: A2AR variant; VH CDR1-3 SEQ ID NO 24/113/202 (antibody, V domains shown)
VH: EVQLVESGGGLVKPGGSLRLSCAASGFTFSGYAMNWVRQAPGKGLEWVSTISGSGASTYYADSVKGRFTISRDNSKNTLYLQMNSLRAEDTAVYYCAAARGYKRWRLGRRYDYWGQGTLVTVSS
VL: DIQMTQSPSSLSASVGDRVTITCRASQSISDYLNWYQQKPGKAPKLLIYTASTLQSGVPSRFSGSGSGTDFTLTISSLQPEDFATYYCEQSYSTPWTFGGGTKLEIK
B3: A2A-24: A2AR variant; VH CDR1-3 SEQ ID NO 29/118/207 (antibody, V domains shown)
VH: EVQLVESGGGLVKPGGSLRLSCAASGFNIGNTYMHWFRQAPGKGLEWVGVINPNYGTTRYNDSVKGRFTISRDNSKNTLYLQMNSLRAEDTAVYYCARDYGSSSFDYWGQGTLVTVSS
VL: DIQMTQSPSSLSASVGDRVTITCKASQSVRNDVVWYQQKPGKAPKLLIYRGNTLRPGVPSRFSGSGSGTDFTLTISSLQPEDFATYYCQQYYGIPLTFGQGTKLEIK
B4: A2A-26: A2AR variant; VH CDR1-3 SEQ ID NO 31/120/209 (antibody, V domains shown)
VH: EVQLLESGGGLVQPGGSLRLSCAASGFTFSTYAMGWVRQAPGKGLEWVSGISGSAGSTYYADSVKGRFTISRDNSKNTLYLQMNSLRAEDTAVYYCAAARGHWRWRLGRRYDYWGQGTLVTVSS
VL: DIQMTQSPSSLSASVGDRVTITCRASQTISRYLNWYQQKPGKAPKLLIYSASTLQSGVPSRFSGSGSGTDFTLTISSLQPEDFATYYCQQSYSTPHTFGGGTKVEIK
B5: A2A-27: A2AR variant; VH CDR1-3 SEQ ID NO 32/121/210 (antibody, V domains shown)
VH: EVQLVESGGGLVKPGGSLRLSCAASGFTFSSYAMAWVRQAPGKGLEWVSAISGSGGSTYFADSVKGRFTISRDNSKNTLYLQMNSLRAEDTAVYYCAAARGYWRWRLWRRYDYWGQGTLVTVSS
VL: DIQMTQSPSSLSASVGDRVTITCRASQSIGSYLNWYQQKPGKAPKLLIYGASNLQSGVPSRFSGSGSGTDFTLTISSLQPEDFATYYCQQGYSAPRTFGGGTKLEIK
B6: A2A-51: A2AR variant; VH CDR1-3 SEQ ID NO 56/145/234 (antibody, V domains shown)
VH: EVQLVESGGGLVKPGGSLRLSCAASGYTFNDYYINWVRQAPGKGLEWVGDINPNNGANIYNDSVKGRFTISRDNSKNTLYLQMNSLRAEDTAVYYCARNYGSSYYALDYWGQGTLVTVSS
VL: DIQMTQSPSSLSASVGDRVTITCSASSSLSYMHWYQQKPGKAPKLLIYGASPRESGVPSRFSGSGSGTDFTLTISSLQPEDFATYYCRQMSSYPPTFGQGTKLEIK
B7: A2A-53: A2AR variant; VH CDR1-3 SEQ ID NO 58/147/236 (antibody, V domains shown)
VH: EVQLVESGGGLVKPGGSLRLSCAASGFNIIDDYMHWVRQAPGKGLEWVGMITDTGEPTDADSVKGRFTISRDNSKNTLYLQMNSLRAEDTAVYYCVYDYIYAMDYWGQGTLVTVSS
VL: DIQMTQSPSSLSASVGDRVTITCKASQNMGSNVAWYQQKPGKAPKLLIYSASHRSSGVPSRFSGSGSGTDFTLTISSLQPEDFATYYCQQWNYPRITFGQGTKLEIK
B8: A2A-31: A2AR variant; VH CDR1-3 SEQ ID NO 36/125/214 (antibody, V domains shown)
VH: EVQLVESGGGLVKPGGSLRLSCAASGYLFTDYNMNWVRQAPGKGLEWVGWIYPGTGNTYNDSVKGRFTISRDNSKNTLYLQMNSLRAEDTAVYYCTALYYGSSWERYFDVWGQGTLVTVSS
VL: DIQMTQSPSSLSASVGDRVTITCRASQSISDYLNWYQQKPGKAPKLLIYGASPRESGVPSRFSGSGSGTDFTLTISSLQPEDFATYYCQQDNIWPYTFGQGTKLEIK

What was measured:
[1] = biological target: T2, A2AR (Homo sapiens, UniProt P29274); assay: A2AR cell functional cAMP assays (allosteric and antagonistic); settings: NECA titration, IgG titration (NECA 0.5 uM), IgG titration (NECA 10 uM)
T2 sequence (P29274 whole entry): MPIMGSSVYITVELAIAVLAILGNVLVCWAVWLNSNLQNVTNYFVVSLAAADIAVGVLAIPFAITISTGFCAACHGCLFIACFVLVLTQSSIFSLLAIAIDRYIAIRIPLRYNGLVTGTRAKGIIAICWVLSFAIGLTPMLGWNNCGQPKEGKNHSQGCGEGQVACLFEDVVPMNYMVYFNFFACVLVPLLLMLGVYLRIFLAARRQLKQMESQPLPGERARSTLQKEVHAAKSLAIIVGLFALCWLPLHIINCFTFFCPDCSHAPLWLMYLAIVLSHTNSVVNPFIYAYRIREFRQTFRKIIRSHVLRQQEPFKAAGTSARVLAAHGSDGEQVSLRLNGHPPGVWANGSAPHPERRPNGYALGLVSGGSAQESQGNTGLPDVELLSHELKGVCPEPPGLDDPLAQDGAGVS
Protocol: Allosteric and Antagonistic cAMP Assays were Performed Using A2A Cell Lines

[2] = biological target: T1, A2b; assay: A2b functional antagonistic cAMP assay (CHO-K1 cells); assay type: cell-based; settings: IgG 3× titration from 1000 nM, NECA 5 nM
Protocol: FIG. 46 depicts the functional cAMP assay performed on selected A2b antibodies. CHO-K1 cells were incubated with an A2b antibody. Next, the cells were stimulated using NECA. Activation of A2b was monitored based on 3′-5′-cyclic adenosine monophosphate (cAMP) production in the cell lines.
First, cells were pre-incubated with A2A-17, A2A-19, A2A-26, A2A-27, A2A-35, A2A-36, and A2A-83 at a 3× titration starting at 100 nM. […] The results are depicted in FIGS. 47B-47C.
An antagonistic cAMP assay at high levels of IgC and low ligand levels was performed. Cells were pre-incubated with A2A-17, A2A-19, A2A-26, A2A-27, A2A-35, A2A-36, A2A-83, and A2A-72 at a 3× titration starting at 1000 nM. […] The results are depicted in FIG. 47D. […] Properties of A2b are depicted in Table 23.

[3] = test system: human colon carcinoma (Colo205); assay: In vivo colon carcinoma model, tumor volume; settings: mice with Colo205, tumor volume over 30 days
Protocol: Mice with human colon carcinoma (Colo205) were divided into 4 groups. Group 1 was the isotype control, Group 2 mice were treated with Anti-PD1, Group 3 mice were treated with variant A2A-77 and Group 4 mice were treated with variant A2A-81. Tumor volume is measured over 30 days. Results are depicted in FIGS. 34A-34D.
Additional studies were performed with mice treated with 10 mg/kg variant A2A-51 (Group 5), A2A-28 (Group 6), Ab7/PD1TAO15 (Group 7), and AZD4635 (Group 8). Mice were also treated with 20 mg/kg according to the schedule in FIG. 34E. Data is seen in FIGS. 34F-34K.

[4] = biological target: T2, A2AR; assay: T cell activation assay (PBMCs, NECA, anti-CD3ε/CD28 beads, IFN-γ release); assay type: cell-based; parameters: endogenous in cells; host or cells: PBMCs; settings: for T cell activation: NECA 1 μM, IFN-γ release
Protocol: The cells were then activated by magnetic beads coating with anti-CD3ε/CD28 antibodies. Three days after incubation, the supernatant was collected for detecting IFN-γ release and evaluating T cell activation. ZM-241385 is potent and used as a selective small molecule A2A antagonist control.
A primary T-cell activation assay was performed as described above. Data is seen in FIG. 33D and Table 21.

Molecule	function in cAMP assays [1]	T cell activation [4]	further results
B1	improved function		
B2	improved function		
B3	improved function		
B4	improved function		
B5	improved function		A2a/A2b antagonist properties [2]: A2a antagonist that cross links with A2b, while also being an A2b antagonist
B6		T cell activation was observed	tumor size / tumor volume [3]: ability to reduce tumor volume; T cell activation with more (high) NECA ([4]; high NECA): still works well
B7		T cell activation was observed	
B8		T cell activation was observed	
